According to PMC5769749:

Molecular target: NC-RLuc (HIV-1 nucleocapsid fused to Renilla luciferase), expressed in HeLa cells (HIV-1)
Assay: proximity ligation

For “Staufen1-YFP (from UniProt O95793-2 1-496) (natural protein)”, the PLA spots per cell (spots per cell) was 103.
